These results are taken from patent US20190351068A1, “COMPOSITIONS AND METHODS FOR DRUG DELIVERY” (priority 2017, published 2019).

The subject of series [1] is choline transporter. The series can be described thus: Brain uptake of Cy5.5-labeled n(Nimo) after pre-injection of choline-transporter inhibitor. It is filed as in vivo, mice. The conditions noted are these: 1.25, 2.5 or 5 μg/kg intraperitoneal 20 mins before n(Nimo); 4 hours after injection. The protocol: The BBB penetration of the nanocapsules can be attributed to their transcytosis mediated by the choline and acetylcholine receptors. Glioma-bearing mice were intraperitoneally injected with 1.25, 2.5 or 5 μg/kg of choline-transporter inhibitor, hemicholinium-3 (HC-3), 20 mins prior to the injection of Cy5.5-labeled n(Nimo). FIGS. 8A and 8B depict the in-vivo bioluminescent images of the orthotopic U87-EGFRwt glioma xenograft mice and the ex-vivo fluorescent images of the brains 4 hours after injection. […] This method provides an effective antibody delivery strategy for brain tumor treatment.

Series [2] is described as follows: Brain fluorescence after intravenous injection of fluorescence-labeled BSA conjugates. It is filed as in vivo, Balb/c mice. As to conditions: 5.0 mg/kg intravenous, one day after injection. The protocol:
Protein conjugates were synthesized by conjugating polymer, poly(2-methacryloyloxyethyl phosphorylcholine) (PMPC), to fluorescence-labeled bovine serum albumin (BSA). The BSA conjugates were injected to Balb/c mice via intravenously at a dose of 5.0 mg/kg. One date after the intravenous injection, fluorescence intensity of the mouse brains was compared.

On the set-up of series [3]: species or system rhesus macaque monkey. As to conditions: rhesus monkey, in vivo. As to the method:
To evaluate the CNS delivery efficiency, Rituximab nanoparticles were administrated to non-human primates (rhesus macaque monkey) at a dose of 5.0 mg/kg via intravenous injection. After intravenous administration, plasma was collected at 1, 2, 3, 5, 7, 10, 14 and 17 days post injection, and CSF was collected at day 3, 10 and 17. […] In sharp contrast, Rituximab in CSF was undetectable by week 2 for the monkey administrated with native Rituximab.

On to `C[N+]1(C)CCOC(O)(c2ccc(-c3ccc(C4(O)C[N+](C)(C)CCO4)cc3)cc2)C1.[Br-].[Br-]` (centres unmarked) [HC-3, hemicholinium-3], for which the “effect on fluorescent intensity of glioma-bearing brain after Cy5.5-labeled n(Nimo)” value in series [1] is on record as “significantly reduces the fluorescent intensity”.
As to “BSA conjugates: poly(2-methacryloyloxyethyl phosphorylcholine) (PMPC) conjugated to fluorescence-labeled bovine serum albumin”, in series [2], the “brain fluorescence intensity relative to mice injected with PBS” value is recorded as 6 times and the “brain fluorescence intensity relative to mice injected with native BSA” value is 4 times.
In the case of Rituximab, in series [3], the “Rituximab in CSF” value is reported as “undetectable”. In addition, the “CSF concentration compared with n-Rituximab” value in series [3] (iv) is on record as “significantly lower CSF concentration”.
